Data taken from the nanobody polyreactivity screen of Harvey et al. (2022).

Assay: yeast display, Sf9 membrane polyspecificity reagent, FACS + sequencing; frameworks hold sequencing errors
How it was run: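 Genes from sorted yeast were amplified by colony PCR, read by MiSeq 2 × 250 sequencing and filtered on CDR length. These cells carried a synthetic nanobody library in Saccharomyces cerevisiae BJ5465 and were sorted by FACS into low and high (top ~1%) gates on anti-HA and streptavidin fluorescence. Polyreactivity is labelled according to the gate of origin.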

Sequence | polyreactivity (PSR sort gate)
QVQLVESGGGLVQAGGSLRLSCAASGFIFFVNAMGWSRQAPGKEREFVATITGSGGSTYYADSVKGRFTISRDNAKNTVYLQMNSLKPEDTAVYYCAADSLTPKSASDYWGQGTQVTVSS | low polyreactivity
QVQLVESGGGLVQAGGSLRLSCAASGRILYGYAMGWYRQAPGTERELVASLSSGGRTYYADSVKGRFTISRDNAKNTVYLQMNSLKPEDTAVYYCAAVAYGNWYRYYYWGQGTQVTVSS | high polyreactivity
QVQLVESGGGLVQAGGSLRLSCAASGSIFWGYAMGWYRQAPGKERELVATITYGGDSTYYADSVKGRFTISRDNANNTVFLQMNSLKTEDTAVYYCNVGVEPYDYDYWGQCTQVTVSS | low polyreactivity
QVQLVESGGGLVQAGGSLRLSCAASGSIFDIYAMGWYRQAPGKERELVAAISWIGDSTSYAESVKGRFTISRDNAKNTVYLQMNSLKPEDTAVYYCNAVVQGLADFQKYDYWGQGTQVTVSS | low polyreactivity
QVQLVESGGGLVQAGGSLRLTCAASGRIFTTYAMGWYRQAPGKERELVAAISRSGGSTYYADSVKGRFTISRDNAKNTVYLQMNSMKPEDTAVYYCAAVPTSNSFRSSFYYWGQGTQVTVSS | high polyreactivity
QVQLVESGGGLVQAGGSLRLSCAASGRTFYFYAMGWYRQAPGKERELVAAISSGASTYYADSVKGRFTISRDNAKNTVYLQMNSLKPEDTAVYYCAAEFWTQWSGYEYWGQGTQVTVSS | high polyreactivity
QVQLVESGGGLVQAGGSLRLSCAASGFTFGYYDMGWYRQAPGKERELVAAISSSDVSTYADSVKGRFTISRDNAKNTVYLQMNSLKPEDTAVYYCAADFWYSYYYWGQGTQVTVSS | high polyreactivity
QVQLEESGGGLVQAGGSLRLSSAASGRTFYDNTMGWYRQSPVKERELVAAISRGGSTYADSVKGRFTISRDNAKNSVYLQMNSLKPEDTAVYYCAAVPRYQYGYWGQGTQVTVSS | low polyreactivity
QVQLVESGGGLVQAGGSLRLSCAASGRTFYGNTMGWYIQAPGKERELVAAITRSGGSTYYADSVKGRFTISRDNAKNTVYFQMNSLKPEDTAVYYCAASRTYYAPYGYWGQGTQVTVSS | high polyreactivity
QVQLVESGGGLVQAGGSLRLSCAASGSTFWYYAMGWSRQAPGKERELVAAIRWSDGSTYYADSVKGRFTISRDNAKNTVYLQMNSLKPEDTAVYYCEYYYWGLGTQVTVSS | low polyreactivity
QVQLVESGGGLVQALGSLRLSCAASGSIFQRNALGWYRLAPGKERELVAAISRSGGSTYYADSVKGRFTISRDNAKNTVYCQMNSLQPEDTAVYYCAAVHFFWGYDYWGQGTQVTVSS | high polyreactivity
QVQLVESGGGLVQAGGSLRLSCAASGRIFRWYAMGWYRQAPGKERELVATISSSGRTNYADSVKGRFTISRDNAKNTVYLQMNSLKPEETAVYYCNADGGDWFGYVGMDYWGQGTQVTVSS | high polyreactivity
QVQLVESGGCLVQAGGSLRLSCAASGRIFGSYTKGWYRQAPGKERELVAAISDSGDSTYADSVKGRFTISRDNAKNTVYLQMNSLKPEDTAVYYCNAKSGSLAGNEYDYWGQGTQVTVSS | low polyreactivity
QVKLVESGGGLVQAGGSLRLSCAASGSIFYYYAMGWYREAPGKERELVAAISYGGGSTYYADSVKGRFTISRDNAKNTVYLQMNSLKPEDTAVYYCAVQEVVGWYLYDYWGHGTQVTVSS | high polyreactivity
QVQLVESGGALVQAGGSLRLSCAASGNTFQRYTMGWYRQAPGKERELVAAITWSGGNTYYADSVKGRFTISRDNAKNSVYLQMNSLKPEDTAVYDCNADYPTTAYDYWGQGTQVTVSS | low polyreactivity
QVQLVESGGGLVQAGGSLRLSCAASGGIFDRYAMGWKRQAPGKERELVAVISGSVNTYADSVKGRFTISRDNAKNTGYLRMNSLKPEDTAVYYCATQFEGPSGFNYWGQGTQVTVSS | low polyreactivity
QVQLVESGGGLVQAGGSLRLSCAASGLTFEYNAMGWYRQAPGKERELVASISSGGGTNYADSVKGRFTISRDNAKNTVYLQMNSLKPEDTAVYYCATDNYDWSCWAFRGYWYDYWGQGTQVTVSS | low polyreactivity
QVHLVDSGGGLVQEGGSLRLSCGASGSTFQSYAMGWYRQSPGKERELVAVIDSGGRTYYADSVKGRFTISRDNAKNTVYLQINSLKPEDTAVYYCAARGPVGNGWRYRPWHDYWGQGTQVTVSS | high polyreactivity
QVQLVESGGGLVQAGGSLRLSCAASGITFFGYAMGWYRQAPGKERELVAAISTRGGSTYYADSVKGRFTISRDNAKNTVYLQMNSLKPEDTAFYYCNKEYYHKWAPTYDYWGQGTQVTVSS | low polyreactivity
QVQLVESGGGLVQAGGSLRLSCAASGSILGYYAMGLYRQAPGKERELVAAISGRGGSTYYADSLKGRFTISRDNAKNTVYLQMNSLKPEDTAVYYCAKRSVWRGWGQGTQVTVSS | high polyreactivity
QVQLVESGGGLVQAGGSLRLSCAASGRIFQPYAMGWYRQAPGKERELVAAITRRAGSTYYADSVKGRFTISRDNAKNTVYLQMNSLKPEDTAVYYCAARGLYWAYEMEYWGQGTQVTVSS | low polyreactivity
QVQLVESGGGLVQAGGSLRLSCAASGSIFPYNAMGWYRQAPGKERELVAAITSSGGRTYYADSVKGRFTISRDNAKNTVYLQMNSLKPEDTAVYYCAVEANYHTYWLYYWGQGTQVTVSS | high polyreactivity

Sequence | polyreactivity (PSR sort gate)
QVQLVESGGGLVQAGGSLRLSCAASGRTFQGNAMGWYRQAPGKERELVAVIDSGTSTDYADSVKGRFTISRDNAKNTVYLQMNSLKPEDTAVYYCAADGALGYNLRYDYWGQGTQVTVSS | low polyreactivity
QVQLVESGGGLVQAGGSLRLSCAASGFIFIPNTMGWYRQAPGKERELVASGSTYYADSVKGRFTISRDNAKNTVYLQLNSLKPEDTAVYYCAARYHRYSSEFDYWGQGTQVTVSS | low polyreactivity
QVQLVESGGGLVQAGGSLRLSCAASGRTFTGNAMGWYRQATGKERELVAAINSGGGRTFYADSVKGRFTISRDNAKNTVYLQMTSLKPEDTAVYYCNAVKYRSYYWGQGTQVTVSS | high polyreactivity
QVQLVESGGGLVQAGGSLRLSCAASGRTFSSYTMGWYRQAPGKERELVAAISWRGGSTYYADSVKGRFTISRDNAKYTVYLQMTSLKPEDTAVYYCNADVYSTYYNYNYWGQGTQVTVSS | high polyreactivity
QVQLVESGGGLVQAGGSLRLSCAASGRTFTSNAMGWYRPAPGKERELVAAITQSGGSTYYADSVKGRFTISRDNAKNTVYLQMNSLKPEDTAVYYCNAETTGRTEYNYWGQGTQVTVSS | low polyreactivity
QVQLVESGGGLVQAGGSLRLSCAASGRLLPIYAMGWYRQAAGKERELVATISWTSDSTYYADSVKGRFTISRDNAKNTVYLQMNSLKPEDTAFYYCAREYTYNYASTVIYDHWGQGTQVTVSS | low polyreactivity
QVQLVESGGGLVQAGGSLRLSCAASGRLFDSNARGWYSQAPGKERELVAAISSGASTYYADSVKGRFTISRDNAKNTVYLQMNSLKPEDTAVYYCAVRLRYAYRARGNYWGQGTQVTVSS | low polyreactivity
QVQLVESGGGLVQAGCSLRLSCSASGSTFVAYAMGWYRQAPGTERELVAANTTGGSTNYADSVKGRFTISRDNAKNTVYLQMNSLKPEDTAVYYCATDSSTTWLRRATSKGPGEYWGQGTQVTVSS | low polyreactivity
QVQLVESGGGLVQAGGSLRLSCAASGSIAKINAMGWYRQAPGKERELVAAINTGDSTYYADSVKGRFTISRDNAKNTVYLQMNSLKPEDTAVYYCAAEGSPNGYDYWGQGTQVTVSS | low polyreactivity
QVQLVESGGGLVQAGGSLRLSCAASGSTFSSYAMGWYRQAPGKERELVAAITSGGSTNYADSVKGRFTISRDNAKNTVYLQMNSLKPEDTAVYYCNAQINDFIFVYDYWGQGTQVTVSS | low polyreactivity
QVQLVESGGGLVQAGGSLRLSCAASGRIFVDYDMGWYRQAPGKERELVAAISFDGGNTYADSVKGRFTISRDNAKNTVYLQMNSLKPEDTAVYYCARDDTSPGYGDQSSNAAYYYWGQGTQVTVSS | low polyreactivity
QVQLVESGGGLVQAGGSLRLSCAASGLTFWLNAMGWYRQAPGKERELVAAIRYSGGGTYADSVKGRFTISRDNAKNTVYLQMNSLKPEDPAVYYCAALYNLGYPQFDYWGQGTQVTVSS | low polyreactivity
QVQLVESGGGLVQAGGSLRLSCAASGSIFNHYAMGWYRQAPGKERELVAAISGSGGSTYYADSVKGRFTISRDNAQNTVYLQMYSLKPEDTAVYYCAARILRHWVSAEYYWGQGTQVTVSS | low polyreactivity
QVQLVESGGGLVQAGGSLRLSCAASGFIFSYYAMGWYRQEPGKERELVAAITSNGGITYYADSVKGRFTISRDNAKNTVYLQMNSLKPEDTAVYYCNAYYTSTSYDYWGQGTQVTVSS | high polyreactivity
QVQHVESGGGLDQAGGRLRLSCAASGFTFARNAMGWYRQAPGKDRELVAAINRSGGSTYYADSVKGRFTISRDNAKNTVYLQMNSLKPEDTAVYYCNAPYAQFTSGYDYWGQGTQVTVSS | high polyreactivity
QVQLVESGGGLVQAGGSLRLSCAASGSIFRVYAMGWYRQAPGKEREFVAAITRRGTRTYYADSVKGRFTISRDNAKNTDYLQMNSLKPEDTAVYYCAAYFTDGLYEYWGQGTQVTVSS | low polyreactivity
QVQLVESGGGLVQAGGSLRLSCAASGSIFNPNAMGWYRQAPGKERELLAAIDSGGTTDYADSVKGRFTISRDNAKNTVYLQMNSLKPEVTAVYYCNADRTVTSSSFTDYDYWGQGTQVTVSS | high polyreactivity
QVQLVESGGGLVQAGGSLSLSCAATGINYGDYAMGWYRQAPGKERELVAAISSDTSTNYADSVKGRFTISRDNAKNTVYLQMNSLKPEDTAVYECAAEGSYYGWYQGFDYWGQGTQVTVSS | low polyreactivity
QVQLVESGGGLVQAGGSLRLSCAASGLIFARNALGWYRQAPGKERELVAAISWRSGRTYYADSVKGRFTISRDNAKNTVYLQMNSLKPEDTAVYYCAATSRTSWYGYWGQGTQVTVSS | high polyreactivity
QVQLVESGGGLVQAGGSLRLSCAASGSTFSYYGMGWSRQAPGKERELVAAISWSGGSTYYADSVKGRFTISRDNAKNTVYLQMNSLKPEDTAVYYCARLDSAAEPRQYDYWGQGTQVTVSS | high polyreactivity
QVQLVESGGGLVQAGGSLRLSCAASGNTFGRYAMGWYRQAPGKERELVASIRGSSVRTFYADSVKGRFTISRDNAKNTVYLQMNSLKPEDTAVYYCAAEVYRYYATGYGYWGQGTQVTVSS | high polyreactivity
